Measured values as given in US20130302329A1, “DIAGNOSTIC TESTS FOR IMMUNE REACTIVITY WITH HUMAN ENDOTHELIAL CELL GROWTH FACTOR” (TRUSTEES OF BOSTON UNIVERSITY, priority 2010, published 2013).

Experiments:
PBMC [1] = assay: Retest of peptides with the patient's own PBMC: IFN-γ secretion; format: cell-based, human; conditions: PBMC of patient LA1, second assay
From the text: Only two peptide sets (set 33 and set 40) induced proliferation responses that were >2 times background (FIG. 2). Enough cells remained for retesting the first set together and the second peptide set individually. In the second assay, only one peptide induced proliferation and IFN-γ secretion that were >2 times background. This peptide (^340LGRFERMLAAQGGVDPG^355) (SEQ ID NO:1), 1 of the 16 identified by only one of the three search programs, originated from the source protein platelet-derived endothelial cell growth factor (ECGF), also called thymidine phosphorylase or gliostatin.

PBMC [2] = assay: Testing of subjects' PBMC with commercially available recombinant ECGF; format: cell-based, human
Procedure: Initially, subjects' PBMC were tested using commercially available recombinant ECGF. […] Consequently, three HLA-DR T-cell epitope prediction algorithms (Wang et al., PLoS Computat. Biol. e1000048 (2008)), were used to identify seven ECGF peptides, including the one peptide identified in the initial patients' sample (ECGF340-365), that were predicted to be presented by the HLA-DR molecules associated with antibiotic-refractory Lyme arthritis. These peptides were synthesized and tested for autoreactivity via IFN-γ ELISPOT assays using patient and control PBMC (FIG. 3). Based upon the values obtained in 14 healthy control subjects (FIG. 3), a positive T cell response was defined as a stimulation index (no. of spots induced by an ECGF peptide /no. of spots in no antigen controls) 3 standard deviation (SD) above the mean of healthy controls, which characteristically gave >40 spot forming units (SFU)/10^6 PBMC and a stimulation index of >8.

Molecule	IFN-γ secretion relative to background (PBMC [1]) [times background]	effect on thymidine incorporation (PBMC [2]; actively dividing cells)	IFN-γ secretion by PBMC (PBMC [2]; subjects' PBMC)
LGRFERMLAAQGVDPG (listed as Homo sapiens) [SEQ ID NO:1, ECGF peptide (index case), HLA-DR-presented, identified in LA1 synovial sample]	> 2	–	–
ECGF: commercially available recombinant human platelet-derived endothelial cell growth factor, also called thymidine phosphorylase or gliostatin (protein, UniProt P19971 11-482, looked up) Thymidine phosphorylase: APPAPGDFSGEGSQGLPDPSPEPKQLPELIRMKRDGGRLSEADIRGFVAAVVNGSAQGAQIGAMLMAIRLRGMDLEETSVLTQALAQSGQQLEWPEAWRQQLVDKHSTGGVGDKVSLVLAPALAACGCKVPMISGRGLGHTGGTLDKLESIPGFNVIQSPEQMQVLLDQAGCCIVGQSEQLVPADGILYAARDVTATVDSLPLITASILSKKLVEGLSALVVDVKFGGAAVFPNQEQARELAKTLVGVGASLGLRVAAALTAMDKPLGRCVGHALEVEEALLCMDGAGPPDLRDLVTTLGGALLWLSGHAGTQAQGAARVAAALDDGSALGRFERMLAAQGVDPGLARALCSGSPAERRQLLPRAREQEELLAPADGTVELVRALPLALVLHELGAGRSRAGEPLRLGVGAELLVDVGQRLRRGTPWLRVHRDGPALSGPQSRALQEALVLSDRAPFAAPSPFAELVLPPQQ	–	inhibited thymidine incorporation into actively dividing cells	non-specifically induced PBMC to secrete IFN-γ
